We go through one protein from article PMC11206591, “Novel Ultrasound-Responsive Amyloid Formulation” (Pharmaceuticals, 2024).

This data set concerns the molecule itself. The experiment in a line: thioflavin T (ThT) fluorescence; 200 µM peptide in 100 mM ammonium acetate buffer pH 7, 37 °C in a thermomixer, read at 24 h and 48 h; with and without Pluronic F127 0.01% and Dox; ThT 50 µM in 20 mM Tris pH 8, 440/482 nm.

B1: Receptor-interacting protein RIP 3 peptide NIYNCSGVQVGD (peptide)
peptide: NIYNCSGVQVGD
notes: The amyloids were formed from the peptide alone and also with Pluronic F127 (0.01% w/v) and/or Doxorubicin; also called 12-amino-acid peptide from the amyloidogenic region of RIP3; source: synthetic peptide, custom-synthesized from Genscript
As to B1, the binding result was “binds”.
